These results are taken from article PMC5053164.

This data set is described as follows: aggregation after overnight glycosidase digestion. The note with it: glycan lost; control: untreated.

B1: DORN1 extracellular domain (atDORN1-ECD; LecRK-I.9): PNGase F (protein)
parent chain: MARWLLQILIISSLHLSSVSSQQETSFVYESFLDRQNLYLDKSAIVLPSGLLQLTNASEHQMGHAFHKKPIEFSSSGPLSFSTHFVCALVPKPGFEGGHGIVFVLSPSMDFTHAESTRYLGIFNASTNGSSSYHVLAVELDTIWNPDFKDIDHNHVGIDVNSPISVAIASASYYSDMKGSNESINLLSGNPIQVWVDYEGTLLNVSVAPLEVQKPTRPLLSHPINLTELFPNRSSLFAGFSAATGTAISDQYILWWSFSIDRGSLQRLDISKLPEVPHPRAPHKKVSTLIILLPVCLAILVLAVLAGLYFRRRRKYSEVSETWEKEFDAHRFSYRSLFKATKGFSKDEFLGKGGFGEVYRGNLPQGREIAVKRVSHNGDEGVKQFVAEVVSMRCLKHRNLVPLFGYCRRKRELLLVSEYMPNGSLDEHLFDDQKPVLSWSQRLVVVKGIASALWYLHTGADQVVLHRDVKASNIMLDAEFHGRLGDFGMARFHEHGGNAATTAAVGTVGYMAPELITMGASTGTDVYAFGVFMLEVTCGRRPVEPQLQVEKRHMIKWVCECWKKDSLLDATDPRLGGKFVAEEVEMVMKLGLLCSNIVPESRPTMEQVVLYLNKNLPLPDFSPYTLGIGTFAPVLVDASSLVVSSASWSLSGPSMSSSSPNHSPYAWQSTDQPWGQTIDTKNSLHIVAEPEKPSPAVKMVTLPAEDPQSNHSSISSQRVQPVKREKRRLHQILVAFPWINKQYFKLGLPKHIVHVSLFFFLQLARL
With B1, the stability_or_folding entry is “decreases”.

B2: DORN1 extracellular domain (atDORN1-ECD; LecRK-I.9): Endo H (protein)
parent chain: B1 parent chain
As for B2, the stability_or_folding result is given as “decreases”.
